In patent publication US6858210B1, “Therapeutic and diagnostic domain 1 β2GPI polypeptides and methods of using same” (La Jolla Pharmaceutical Co., priority 1998, dated 2005):

System: antiphospholipid antibody in plasma from patient 6501
Assay: Competitive antibody binding ELISA with patient plasma on β2GPI coated plates
Design: species or system human
Conditions: plasma patient 6501, 1:200
Method: Nunc Maxisorp microplates (Nalge Nunc International, Denmark) were coated with 100 μL/well of β2GPI at 2.5 μg/mL in PBS, incubated for 2 hours at room temperature, and blocked for 2 hours at room temperature with 250 μl/well of 2% nonfat milk with […] (Sigma Chemical Co.). […] After incubation for one hour at room temperature the plates were washed 5× with TBS. To each well was added 100 μL of alkaline phosphatase-conjugated anti-human IgG, gamma chain specific (Zymed) diluted 1:1000 in 2% nonfat milk with 0.4% Tween-80. After one hour at room temperature the plates were washed 5× with TBS. To each well was added 100 μl PPMP chromogenic substrate solution for color development at room temperature. Optical absorbance per well was determined at A550nm in a commercial microplate reader (Bio-Tek Instruments EL3 11).

B1: Reduced and alkylated domain 1: β2GPI domain 1 polypeptide that had been reduced and alkylated, negative control (protein)
chain: GRTCPKPDDLPFSTVVPLKTFYEPGEEITYSCKPGYVSRGGMRKFICPLTGLWPINTLKCTPRV
modifications: also: reduced and alkylated cysteines, alkylating agent not given here
notes: β2GPI domain 1 polypeptide that had been reduced and alkylated, negative control
Question: With B1 as the molecule, how does the “competition for antiphospholipid antibody binding to β2GPI” value read?
Answer: no such competition
